Values of other authors in publication PMC6935268.

Molecular target: CD80 (Homo sapiens) (UniProt P33681)
UniProt P33681, sequence (P33681 35-242): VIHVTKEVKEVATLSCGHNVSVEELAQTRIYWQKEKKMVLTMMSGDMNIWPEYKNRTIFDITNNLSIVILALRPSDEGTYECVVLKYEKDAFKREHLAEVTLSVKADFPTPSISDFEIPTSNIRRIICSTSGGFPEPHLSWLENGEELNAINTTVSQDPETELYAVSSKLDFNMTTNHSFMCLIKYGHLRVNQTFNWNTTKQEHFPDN

With PD-L1 (from UniProt Q9NZQ7) as the substance, how does the Kd read?
The Kd was 17.8 µM.
